Experimental data as given in patent US20210292413A1 (ACADEMIA SINICA, published 2021).

Assays:
[1] = target: T1, human Siglec-3 on cells (moDC, PBMC of CHB patients) (human, UniProt P20138 18-364); assay: flow cytometry on moDC with APC-conjugated anti-Siglec-3 mAb
T1 construct: whole, on cells; also called Siglec-3 receptor

[2] = target: T1, human Siglec-3 on cells (moDC, PBMC of …); assay: co-IP (IP: Siglec-3) from moDC, lane Mock; Western blot, densitometry [A]
[3] = target: T1, human Siglec-3 on cells (moDC, PBMC of …); assay: co-IP (IP: Siglec-3) from moDC treated with HBV (hHBV); Western blot, densitometry, fold of Mock [A]
[4] = target: T1, human Siglec-3 on cells (moDC, PBMC of …); assay: co-IP (IP: Siglec-3) from moDC treated with anti-Siglec-3 mAb 10C8; Western blot, densitometry, fold of Mock [A]
[5] = target: T1, human Siglec-3 on cells (moDC, PBMC of …); assay: co-IP (IP: Siglec-3) from moDC, HBV +, 10C8 -; Western blot, densitometry, normalized to the untreated control [E]
[6] = target: T1, human Siglec-3 on cells (moDC, PBMC of …); assay: co-IP (IP: Siglec-3) from moDC, HBV -, 10C8 +; Western blot, densitometry, normalized to the untreated control [E]
[7] = target: T1, human Siglec-3 on cells (moDC, PBMC of …); assay: co-IP (IP: Siglec-3) from moDC, HBV -, 10C8 -; Western blot, densitometry, normalized to the untreated control [E]
[8] = target: T1, human Siglec-3 on cells (moDC, PBMC of …); assay: co-IP (IP: Siglec-3) from moDC incubated with hHBV for 0 min; Western blot, densitometry, normalized to the starting point [E]
[9] = target: T1, human Siglec-3 on cells (moDC, PBMC of …); assay: co-IP (IP: Siglec-3) from moDC incubated with hHBV for 15 min; Western blot, densitometry, normalized to the starting point [E]
[10] = target: T1, human Siglec-3 on cells (moDC, PBMC of …); assay: co-IP (IP: Siglec-3) from moDC incubated with hHBV for 30 min; Western blot, densitometry, normalized to the starting point [E]
[11] = target: T1, human Siglec-3 on cells (moDC, PBMC of …); assay: co-IP (IP: Siglec-3) from moDC incubated with hHBV for 60 min; Western blot, densitometry, normalized to the starting point [E]
[12] = target: T1, human Siglec-3 on cells (moDC, PBMC of …); assay: co-IP (IP: Siglec-3) from moDC incubated 30 mins with 0 copies/mL hHBV; Western blot, densitometry, normalized to the first lane [F]
[13] = target: T1, human Siglec-3 on cells (moDC, PBMC of …); assay: co-IP (IP: Siglec-3) from moDC incubated 30 mins with 10^8 copies/mL hHBV; Western blot, densitometry, normalized to the first lane [F]
[14] = target: T1, human Siglec-3 on cells (moDC, PBMC of …); assay: co-IP (IP: Siglec-3) from moDC incubated 30 mins with 10^9 copies/mL hHBV; Western blot, densitometry, normalized to the first lane [F]
[15] = target: T1, human Siglec-3 on cells (moDC, PBMC of …); assay: co-IP (IP: Siglec-3) from moDC incubated 30 mins with 3x10^8 copies/mL hHBV; Western blot, densitometry, normalized to the first lane [F]
[16] = target: T1, human Siglec-3 on cells (moDC, PBMC of …); assay: co-IP (IP: Siglec-3) from moDC treated with anti-Siglec-3 mAb 2B9; Western blot, densitometry, fold of Mock; strong band at the 72 mark [A]
[17] = target: T1, human Siglec-3 on cells (moDC, PBMC of …); assay: co-IP (IP: Siglec-3) from moDC, HBV +, 10C8 + (10C8 given 1 hour before HBV); Western blot, densitometry, normalized to the untreated control [E]

T1 sequence (P20138 18-364): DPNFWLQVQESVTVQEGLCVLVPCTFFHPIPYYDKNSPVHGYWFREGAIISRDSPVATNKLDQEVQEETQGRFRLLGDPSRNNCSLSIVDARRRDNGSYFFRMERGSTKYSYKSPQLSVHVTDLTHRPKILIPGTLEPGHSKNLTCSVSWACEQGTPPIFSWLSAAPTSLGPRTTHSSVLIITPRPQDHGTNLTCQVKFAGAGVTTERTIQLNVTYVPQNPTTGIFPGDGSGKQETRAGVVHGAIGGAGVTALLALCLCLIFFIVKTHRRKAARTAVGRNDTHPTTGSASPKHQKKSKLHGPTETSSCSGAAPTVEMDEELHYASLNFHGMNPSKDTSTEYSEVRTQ
SHP-1, sequence (P29350 whole entry): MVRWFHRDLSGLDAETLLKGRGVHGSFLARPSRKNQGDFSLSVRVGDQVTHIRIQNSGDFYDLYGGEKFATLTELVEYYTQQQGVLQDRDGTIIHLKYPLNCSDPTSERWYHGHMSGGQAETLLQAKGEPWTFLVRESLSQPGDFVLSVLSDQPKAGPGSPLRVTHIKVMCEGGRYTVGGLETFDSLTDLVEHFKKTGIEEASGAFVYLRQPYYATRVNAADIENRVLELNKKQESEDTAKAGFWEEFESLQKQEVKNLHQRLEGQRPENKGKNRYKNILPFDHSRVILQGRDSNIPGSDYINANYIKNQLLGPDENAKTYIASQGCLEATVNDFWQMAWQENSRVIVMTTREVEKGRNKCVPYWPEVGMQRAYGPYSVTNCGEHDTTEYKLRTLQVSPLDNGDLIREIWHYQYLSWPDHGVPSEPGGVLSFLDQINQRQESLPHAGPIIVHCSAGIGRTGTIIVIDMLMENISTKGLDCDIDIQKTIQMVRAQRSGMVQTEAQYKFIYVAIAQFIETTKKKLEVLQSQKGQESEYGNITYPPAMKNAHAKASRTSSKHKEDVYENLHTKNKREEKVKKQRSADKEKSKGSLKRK

Binder	binding result [1]	fold change of SHP-1 co-precipitated with Siglec-3 [2] [fold]	fold change of SHP-1 co-precipitated with Siglec-3 [3] [fold]	fold change of SHP-1 co-precipitated with Siglec-3 [4] [fold]	fold change of SHP-1 co-precipitated with Siglec-3 [5] [fold]	fold change of SHP-1 co-precipitated with Siglec-3 [6] [fold]	fold change of SHP-1 co-precipitated with Siglec-3 [7] [fold]	fold change of SHP-1 co-precipitated with Siglec-3 [8] [fold]	fold change of SHP-1 co-precipitated with Siglec-3 [9] [fold]	fold change of SHP-1 co-precipitated with Siglec-3 [10] [fold]	fold change of SHP-1 co-precipitated with Siglec-3 [11] [fold]	fold change of SHP-1 co-precipitated with Siglec-3 [12] [fold]	fold change of SHP-1 co-precipitated with Siglec-3 [13] [fold]	fold change of SHP-1 co-precipitated with Siglec-3 [14] [fold]	fold change of SHP-1 co-precipitated with Siglec-3 [15] [fold]	fold change of SHP-1 co-precipitated with Siglec-3 [16] [fold]	fold change of SHP-1 co-precipitated with Siglec-3 [17] [fold]
anti-Siglec-3 mAb clone 10C8 (antibody, human IgG1, kappa, V domains shown, the isotype control used beside it is IgG1; also called mAb 10C8; antibody 10C8) VH: EVQLVESGGGLVQPGGSLRLSCAASGFTINNGWIHWVRQAPGKGLEWVAGIGPYGGSTFYADSVKGRFTISADTSKNTAYLQMNSLRAEDTAVYYCSRFIGSYSHMDYWGQGTLVTVSS VL: DIQMTQSPSSLSASVGDRVTITCRASQDVYYYVAWYQQKPGKAPKLLISSAGGLYSGVPSRFSGSGSGTDFTLTISSLQPEDFATYYCQQYFNFPLTFGQGTKVEIKR	binds																
SHP-1 (enzyme) not shown		1	2.4	1.3	10	1.3	1	1	9.1	26	11	1	1.5	14	7.7	36	1.2
